Source: IntAct's records for PubMed 24389026

B1: E3 ubiquitin-protein ligase FANCL (Homo sapiens), Q9NW38-1 (parent)
chain: MAVTEASLLRQCPLLLPQNRSKTVYEGFISAQGRDFHLRIVLPEDLQLKNARLLCSWQLRTILSGYHRIVQQRMQHSPDLMSFMMELKMLLEVALKNRQELYALPPPPQFYSSLIEEIGTLGWDKLVYADTCFSTIKLKAEDASGREHLITLKLKAKYPAESPDYFVDFPVPFCASWTPQSSLISIYSQFLAAIESLKAFWDVMDEIDEKTWVLEPEKPPRSATARRIALGNNVSINIEVDPRHPTMLPECFFLGADHVVKPLGIKLSRNIHLWDPENSVLQNLKDVLEIDFPARAILEKSDFTMDCGICYAYQLDGTIPDQVCDNSQCGQPFHQICLYEWLRGLLTSRQSFNIIFGECPYCSKPITLKMSGRKH
B2: Ubiquitin-conjugating enzyme E2 T (Homo sapiens), Q9NPD8 (parent)
chain: MQRASRLKRELHMLATEPPPGITCWQDKDQMDDLRAQILGGANTPYEKGVFKLEVIIPERYPFEPPQIRFLTPIYHPNIDSAGRICLDVLKLPPKGAWRPSLNIATVLTSIQLLMSEPNPDDPLMADISSEFKYNKPAFLKNARQWTEKHARQKQKADEEEMLDNLPEAGDSRVHNSTQKRKASQLVGIEKKFHPDV
partner: B1 chain

Variants of: B1
Settings: with ube2t_human UBE2T

| effect of a mutation on the interaction | Variant |
| --- | --- |
| disrupting interaction strength | MAVTEASLLRQCPLLLPQNRSKTVYEGFISAQGRDFHLRIVLPEDLQLKNARLLCSWQLRTILSGYHRIVQQRMQHSPDLMSFMMELKMLLEVALKNRQELYALPPPPQFYSSLIEEIGTLGWDKLVYADTCFSTIKLKAEDASGREHLITLKLKAKYPAESPDYFVDFPVPFCASWTPQSSLISIYSQFLAAIESLKAFWDVMDEIDEKTWVLEPEKPPRSATARRIALGNNVSINIEVDPRHPTMLPECFFLGADHVVKPLGIKLSRNIHLWDPENSVLQNLKDVLEIDFPARAILEKSDFTMDCGICAAYQLDGTIPDQVCDNSQCGQPFHQICLYEWLRGLLTSRQSFNIIFGECPYCSKPITLKMSGRKH [Y311A] |
| disrupting interaction strength | MAVTEASLLRQCPLLLPQNRSKTVYEGFISAQGRDFHLRIVLPEDLQLKNARLLCSWQLRTILSGYHRIVQQRMQHSPDLMSFMMELKMLLEVALKNRQELYALPPPPQFYSSLIEEIGTLGWDKLVYADTCFSTIKLKAEDASGREHLITLKLKAKYPAESPDYFVDFPVPFCASWTPQSSLISIYSQFLAAIESLKAFWDVMDEIDEKTWVLEPEKPPRSATARRIALGNNVSINIEVDPRHPTMLPECFFLGADHVVKPLGIKLSRNIHLWDPENSVLQNLKDVLEIDFPARAILEKSDFTMDCGACYAYQLDGTIPDQVCDNSQCGQPFHQICLYEWLRGLLTSRQSFNIIFGECPYCSKPITLKMSGRKH [I309A] |
| disrupting interaction strength | MAVTEASLLRQCPLLLPQNRSKTVYEGFISAQGRDFHLRIVLPEDLQLKNARLLCSWQLRTILSGYHRIVQQRMQHSPDLMSFMMELKMLLEVALKNRQELYALPPPPQFYSSLIEEIGTLGWDKLVYADTCFSTIKLKAEDASGREHLITLKLKAKYPAESPDYFVDFPVPFCASWTPQSSLISIYSQFLAAIESLKAFWDVMDEIDEKTWVLEPEKPPRSATARRIALGNNVSINIEVDPRHPTMLPECFFLGADHVVKPLGIKLSRNIHLWDPENSVLQNLKDVLEIDFPARAILEKSDFTMDCGICYAYQLDGTIPDQVCDNSQCGQPFHQICLYEALRGLLTSRQSFNIIFGECPYCSKPITLKMSGRKH [W341A] |

Variants of: B2
Settings: with FANCL

| effect of a mutation on the interaction | Variant |
| --- | --- |
| disrupting interaction strength | MQRASRLKRELHMLATEPPPGITCWQDKDQMDDLRAQILGGANTPYEKGVFKLEVIIPEEYPFEPPQIRFLTPIYHPNIDSAGRICLDVLKLPPKGAWRPSLNIATVLTSIQLLMSEPNPDDPLMADISSEFKYNKPAFLKNARQWTEKHARQKQKADEEEMLDNLPEAGDSRVHNSTQKRKASQLVGIEKKFHPDV |
